The record followed here is article PMC3462001.

For this assay, the target named is Gab1 (UniProt Q9QYY0). In words: co-immunoprecipitation, immunoblot. To be noted: reference: wild-type PAR3 with PAR1b; sites S144,S873. A general note: In western blotting, separated proteins are transferred to a membrane and probed.

With “PAR3 (from UniProt Q8TEW0) PAR3 S144A/S873A with PAR1b”, the “binding against the reference” value is given as “stronger”.
